Source: patent US20260265391A1 (BIOTHEUS, published 2026)
Residue numbers refer to the chain shown, from its start.

B1: CP870893-IgG2 (antibody, V domains shown)
VH: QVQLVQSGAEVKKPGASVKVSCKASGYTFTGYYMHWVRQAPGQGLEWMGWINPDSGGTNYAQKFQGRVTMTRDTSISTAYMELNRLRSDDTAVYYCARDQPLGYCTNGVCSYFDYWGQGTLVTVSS
VL: DIQMTQSPSSVSASVGDRVTITCRASQGIYSWLAWYQQKPGKAPNLLIYTASTLQSGVPSRFSGSGSGTDFTLTISSLQPEDFATYYCQQANIFPLTFGGGTKVEIKR
notes: Control antibody; also called CP870893-IgG2-wt; CP-870893-G2-WT
B2: ADI-55136 (antibody, human IgG1, kappa, V domains shown)
VH: QVQLVESGGGVVQPGRSLRLSCAASGFTFSSYGMHWVRQAPGKGLEWVAVISYHASSKYYADSVKGRFTISRDNSKNTLYLQMNSLRAEDTAVYYCARDTSRGHDIWGQGTMVTVSS
VL: EIVLTQSPGTLSLSPGERATLSCRASQSVSSSYLAWYQQKPGQAPRLLIYGASSRATGIPDRFSGSGSGTDFTLTISRLEPEDFAVYYCQQYADYPPFTFGGGTKVEIKR
B3: ADI-55145 (antibody, human IgG1, kappa, V domains shown)
VH: B2 VH with S30E, S31K, H54E, A55G, S56T
VL: B2 VL with R24Q, S31Y, S32N, A56N, T57N, A93S
B4: ADI-55147 (antibody, human IgG1, kappa, V domains shown)
VH: B2 VH with S30G, H54E, A55G, S56V, S57K
VL: B2 VL with S31Y, S32D, S54A, T57N
B5: ADI-55140 (antibody, human IgG1, kappa, V domains shown)
VH: B2 VH with S30E, S31K, S52H, H54E, A55G, S57I
VL: B2 VL with S31Y, S32D, S54T, T57N, Q90G, Q91E
B6: ADI-55142 (antibody, human IgG1, kappa, V domains shown)
VH: B2 VH with S30E, S31K, H54E, A55G, S56E, S57K
VL: B2 VL with S31Y, T57N, Q90S, Q91D
B7: ADI-55144 (antibody, human IgG1, kappa, V domains shown)
VH: B2 VH with S30E, S31K, H54E, A55G, S56T, S57K
VL: B2 VL with S31Y, R55L, A93S
B8: ADI-55168 (antibody, human IgG1, kappa, V domains shown)
VH: EVQLVESGGGLVQPGRSLRLSCAASGFTFDTYAMHWVRQAPGKGLEWVSGISWSSGSIHYADSVKGRFTISRDNAKNSLYLQMNSLRAEDTAVYYCAKDPTATTGARGYFDLWGRGTLVTVSS
VL: B1 VL with R24E, G28V, Y30S, N45K, T50A, T53Y, A91H, N92S, I93S, L96P
B9: ADI-55164 (antibody, human IgG1, kappa, V domains shown)
VH: B8 VH with T31D, G56D
VL: DIQMTQSPSSVSASVGDRVTITCRASKVISSWLAWYQQKPGKAPKLLIYAASYLESGVPSRFSGSGSGTDFTLTISSLQPEDFATYYCQQHSSFPPTFGGGTKVEIKR
B10: ADI-47741 (antibody, human IgG1, kappa, V domains shown)
VH: QVQLQESGPGLVKPSETLSLTCTVSGGSISSYYWSWIRQPPGKGLEWIGSIYYSGSTNYNPSLKSRVTISVDTSKNQFSLKLSSVTAADTAVYYCARDANYYKWHPYWGQGTLVTVSS
VL: EIVLTQSPGTLSLSPGERATLSCRASQSVSSDYLAWYQQKPGQAPRLLIYGASSRATGIPDRFSGSGSGTDFTLTISRLEPEDFAVYYCQQVLSYPPTFGGGTKVEIKR
B11: ADI-55144-2 (antibody, human IgG1, kappa, V domains shown)
VH: B2 VH with S30E, S31K, H54E, A55G, S56T, S57K, D62E
VL: B2 VL with S31Y, R55L, A93S
B12: ADI-55136 Fab (Fab, V domains shown)
VH: B2 VH
VL: EIVLTQSPGTLSLSPGERATLSCRASQSVSSSYLAWYQQKPGQAPRLLIYGASSRATGIPDRFSGSGSGTDFTLTISRLEPEDFAVYYCQQYADYPPFTFGGGTKVEIK
B13: ADI-55145 Fab (Fab, V domains shown)
VH: B2 VH with S30E, S31K, H54E, A55G, S56T
VL: B12 VL with R24Q, S31Y, S32N, A56N, T57N, A93S
B14: ADI-55144 Fab (Fab, V domains shown)
VH: B2 VH with S30E, S31K, H54E, A55G, S56T, S57K
VL: B12 VL with S31Y, R55L, A93S
B15: ADI-55142 Fab (Fab, V domains shown)
VH: B2 VH with S30E, S31K, H54E, A55G, S56E, S57K
VL: B12 VL with S31Y, T57N, Q90S, Q91D
B16: ADI-55140 Fab (Fab, V domains shown)
VH: B2 VH with S30E, S31K, S52H, H54E, A55G, S57I
VL: B12 VL with S31Y, S32D, S54T, T57N, Q90G, Q91E
B17: ADI-55147 Fab (Fab, V domains shown)
VH: B2 VH with S30G, H54E, A55G, S56V, S57K
VL: B12 VL with S31Y, S32D, S54A, T57N
notes: also called Fab fragment of ADI-55147
B18: ADI-55168 Fab (Fab, V domains shown)
VH: B8 VH
VL: DIQMTQSPSSVSASVGDRVTITCEASQVISSWLAWYQQKPGKAPKLLIYAASYLQSGVPSRFSGSGSGTDFTLTISSLQPEDFATYYCQQHSSFPPTFGGGTKVEIK
B19: ADI-47720 Fab (Fab, V domains shown)
VH: B8 VH with T31D, H59G
VL: B18 VL with E24R, V28G, Y53S, H91R, S92A
B20: ADI-55164 Fab (Fab, V domains shown)
VH: B8 VH with T31D, G56D
VL: B18 VL with E24R, Q27K, Q55E
notes: also called Fab fragment of ADI-55164
B21: ADI-47741 Fab (Fab, V domains shown)
VH: B10 VH
VL: EIVLTQSPGTLSLSPGERATLSCRASQSVSSDYLAWYQQKPGQAPRLLIYGASSRATGIPDRFSGSGSGTDFTLTISRLEPEDFAVYYCQQVLSYPPTFGGGTKVEIK

These binders were tested against T1, human CD40 overexpressed on cells (human, UniProt P25942 21-277) (assay: cell-based or functional assay).
T1 sequence (P25942 21-277 limits assumed): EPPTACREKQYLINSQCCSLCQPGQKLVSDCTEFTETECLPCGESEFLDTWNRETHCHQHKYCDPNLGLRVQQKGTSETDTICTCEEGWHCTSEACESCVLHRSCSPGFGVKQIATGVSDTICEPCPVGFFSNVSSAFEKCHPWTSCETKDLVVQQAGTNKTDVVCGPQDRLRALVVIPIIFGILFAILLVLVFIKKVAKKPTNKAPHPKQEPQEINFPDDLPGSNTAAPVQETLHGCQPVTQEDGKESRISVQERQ

Binder	Signal amplification with bead crosslinking (NFkB-Luc2P reporter, U2OS cells overexpressing human CD40)	Signal amplification without bead crosslinking (NFkB-Luc2P reporter, U2OS cells overexpressing human CD40)
B1	14.8	4.7

These binders were tested against T2, cynomolgus CD40-Fc protein (cynomolgus, UniProt G7PG38 21-193) (assay: BLI (ForteBio), IgG on AHQ sensor, 100 nM CD40-Fc in solution, bivalent, 1:1 model).
T2 construct: not shown: Fc part
Description: (§1) The antibody-loaded sensor was further incubated in a high concentration of irrelevant intact antibody solution for 10 minutes to saturate and block the Fc binding sites on the AHQ sensor. The blocked sensor was then incubated with 100 nM CD40-Fc antigen until a plateau was reached, and then the sensor was transferred to the analysis buffer for at least 2 minutes for dissociation rate measurement. Kinetic analysis was performed using a 1:1 binding model.

Binder	Kd [nM]
B2	0.383
B3	0.226
B4	0.208
B5	0.23
B6	0.193
B7	0.19
B8	0.122
B9	0.117
B10	0.559

What follows are binders tested against T3, human CD40-Fc protein (human, UniProt P25942 21-193) in the same assay as above.
T3 construct: also called human CD40-Fc fusion protein; CD40-Fc antigen; not shown: Fc part
T3 sequence (P25942 21-193 limits assumed): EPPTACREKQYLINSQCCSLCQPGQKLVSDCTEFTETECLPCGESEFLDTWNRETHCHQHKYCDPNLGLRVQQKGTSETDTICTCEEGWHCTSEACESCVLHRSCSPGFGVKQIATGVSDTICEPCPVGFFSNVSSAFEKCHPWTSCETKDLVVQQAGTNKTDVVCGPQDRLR
Description: as §1

Binder	Kd [nM]
B3	0.169
B4	0.139
B5	0.168
B6	0.146
B7	0.11
B8	0.111
B9	0.1

Target: T1, human CD40 overexpressed on cells
Assay: cell-based or functional assay
Remark: another data set of the same source

Binder	EC50 of the CD40-NFkB reporter gene assay (with beads cross-linking) [nM]
B1	181

What follows are binders tested against T4, cynomolgus CD40 overexpressed on CHO-S cells (cynomolgus, UniProt G7PG38 21-278) (assay: flow cytometry on CHO-S cells overexpressing cynomolgus CD40).
T4 construct: whole, on cells; also called cynomolgus CD40 expressing CHO cells
Description: (§2) Specifically, by transfecting the pCHO1.0 vector (Invitrogen) with the human/cynomolgus CD40 cDNA cloned into the MCS and followed by applying pressure selection, CHO-S cells overexpressing human/cynomolgus CD40 were generated. The expanded CD40 overexpressing cells were adjusted to the appropriate cell density and plated on 96-well flow plate. After centrifugation, the cells were incubated with a gradient-diluted sample at 4° C. for 30 minutes. and the cells were then washed twice with PBS, and followed by incubation with a fluorescent secondary antibody diluted to the appropriate concentration, at 4° C. for 30 min. Following two washes with PBS, cells were resuspended in PBS and fluorescent signals were detection on the CytoFlex flow cytometer to calculate the corresponding MFI.

Binder	EC50 [nM]
B2	4.83
B3	6.66
B4	4.49
B5	8.53
B6	6.32
B11	15
B1	7.28
B8	8.85
B9	8.06
B10	17.9

Each binder was assayed against T1, human CD40 overexpressed on cells (assay: flow cytometry on CHO-S cells overexpressing human CD40).
Description: as §2

Binder	EC50 [nM]
B3	5.26
B4	7.49
B5	6.3
B6	7.69
B11	11.5
B1	8
B8	4.73
B9	5.47

Each binder was assayed against T2, cynomolgus CD40-Fc protein (assay: BLI (ForteBio), CD40-Fc on AHQ sensor, 100 nM Fab in solution, monovalent, 1:1 model).
Description: (§3) The antigen-loaded sensor was incubated with 100 nM Fab solution until a plateau was reached, and then the sensor was transferred to the analysis buffer for at least 2 minutes for dissociation rate measurement. Kinetic analysis was performed using a 1:1 binding model.

Binder	Kd [nM]
B12	78.1
B13	5.72
B14	2.21
B15	2.81
B16	5.42
B17	8.87
B18	0.586
B19	263
B20	0.72
B21	71

Each binder was assayed against T3, human CD40-Fc protein in the same assay as above.
Description: as §3

Binder	Kd [nM]
B13	5.88
B14	2.08
B15	2.74
B16	5.77
B17	8.67
B18	0.988
B19	152
B20	0.663

Target: T1, human CD40 overexpressed on cells
Assay: cell-based or functional assay
Remark: another data set of the same source

Binder	EC50 of the CD40-NFkB reporter gene assay (without beads cross-linking) [nM]
B1	131
